Biological target: T1, Arabidopsis serine/threonine/tyrosine protein kinase (STYK, At2g24360) (Arabidopsis thaliana) (UniProt Q9ZQ31)
T1 sequence: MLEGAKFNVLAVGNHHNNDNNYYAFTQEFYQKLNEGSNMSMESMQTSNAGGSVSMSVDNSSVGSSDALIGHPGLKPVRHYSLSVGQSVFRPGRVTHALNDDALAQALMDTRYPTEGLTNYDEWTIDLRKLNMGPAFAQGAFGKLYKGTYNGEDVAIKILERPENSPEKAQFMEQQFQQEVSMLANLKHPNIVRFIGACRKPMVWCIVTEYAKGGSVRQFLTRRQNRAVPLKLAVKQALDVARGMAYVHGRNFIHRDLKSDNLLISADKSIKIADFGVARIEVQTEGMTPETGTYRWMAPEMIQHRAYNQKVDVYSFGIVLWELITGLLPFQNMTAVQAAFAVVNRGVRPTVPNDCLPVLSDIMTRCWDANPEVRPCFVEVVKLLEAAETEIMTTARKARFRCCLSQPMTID

Binder | Km of STYK for OLE1 as substrate, in vitro kinase assay [µM] | Km of STYK for CAL4 as substrate, in vitro kinase assay [µM]
Arabidopsis oleosin 1 (OLE1, At4g25140), oleosin 18.5 kDa (natural protein) MADTARGTHHDIIGRDQYPMMGRDRDQYQMSGRGSDYSKSRQIAKAATAVTAGGSLLVLSSLTLVGTVIALTVATPLLVIFSPILVPALITVALLITGFLSSGGFGIAAITVFSWIYKYATGEHPQGSDKLDSARMKLGSKAQDLKDRAQYYGQQHTGGEHDRDRTRGGQHTT | 0.966 | –
Arabidopsis caleosin 4 (CAL4, At1g70670), probable peroxygenase 4 (natural protein) MASSISTGVKFVPEEDNFLQRHVAFFDRNKDGIVYPSETFQGFRAIGCGYLLSAVASVFINIGLSSKTRPGKGFSIWFPIEVKNIHLAKHGSDSGVYDKDGRFVASKFEEIFTKHAHTHRDALTNEELKQLLKANKEPNDRKGWLAGYTEWKVLHYLCKDKNGLLHKDTVRAAYDGSLFEKLEKQRSSKTSKKHP | – | 0.997
